Experimental data reported in patent US20240043504A1 (published 2024).
Positions count from the first letter of the chain named. Several values for one entry are separate records, joined by “and”; a condition that tells them apart may be missing. Identical values can stand only once.

How the values were obtained:
[1] = target: SARS-CoV-2 spike protein (S-wt, Wuhan-Hu-1, NCBI Accession Number MN908947.3) on VSV pseudoparticles (SARS-CoV-2, UniProt P0DTC2 14-1273); experiment: cell-based or functional assay
[2] = target: Human SARS Coronavirus Spike S1 Subunit Protein (His Tag) (Sino 40150-V08B1) (Human SARS Coronavirus, UniProt P59594 14-667); experiment: Luminex bead binding, supernatant
[3] = target: full-length SARS-CoV-2 spike protein (amino acids M1-T1273 of accession number YP_009724390.1) on Ju (SARS-CoV-2, UniProt P0DTC2 14-1273); experiment: cell-based or functional assay
[4] = target: receptor binding domain (RBD) portion of the SARS-CoV-2 Spike protein (amino acids Arg319-Phe541) ex (SARS-CoV-2)
[5] = target: SARS-CoV-2 Spike Protein (RBD)(R319-F541).mFc (mAb10621-L1) (SARS-CoV-2); experiment: Luminex bead binding, supernatant
[6] = target: SARS-CoV-2 Spike Protein (RBD)(R319-F541).hFc (mAb10622-L1) (SARS-CoV-2); experiment: Luminex bead binding, supernatant
[7] = target: Bt-SARS-CoV-2 Spike Protein (RBD)(R319-F541).mFc (mAb10621-L2) (SARS-CoV-2); experiment: Luminex bead binding, supernatant

B1: mAb10936 (antibody, V domains shown)
VH: QVQLVESGGGVVQPGRSLRLSCAASGFTFRNYGMHWVRQAPGKGLEWVSVIWYDGSNRYYADSVKGRFTISRDTSKNTLYLQMNSLRAEDTAVYYCARDPPITGTTGGDAFDIWGQGTMVTVSS
VL: not shown
[1]
  IC50 (M), neutralization: 1.11e-10 M

B2: mAb10956 (antibody, V domains shown)
VH: EVQLVESGGGLVQPGGSLRLSCAASGLTVSSNYMSWVRQAPGKGLEWVSVIYSGGSTFYADSVKGRFTISRDNSKNTLYLQMNSLRAEDTAVYYCARDLIKYGMDVWGQGTTVTVSS
VL: not shown
[2]
  Binding signal (MFI): 16 MFI

B3: mAb10957 (antibody, V domains shown)
VH: B2 VH with L27V, Y79F, A87I, I100G, K101P
VL: DIQLTQSPSFLSASVGDRVTITCRASQGISSYLAWYQQKPGKAPKLLIYAASTLQSGVPSRFSGSGSGTQFILTISSLQPEDFATYYCQQLNSYPGFTFGPGTKVDIKR
[2]
  Binding signal (MFI): 16 MFI

B4: mAb10934 (antibody, V domains shown)
VH: not shown
VL: DIQMTQSPSSLSASVGDRVTITCQASQDIWNYINWYQQKPGKAPKLLIYDASNLKTGVPSRFSGSGSGTDFTFTISSLQPEDIATYYCQQHDDLPPTFGQGTKVEIKR
[1]
  IC50 (M), neutralization: 5.44e-11 M

B5: mAb10933 (antibody, V domains shown)
VH: QVQLVESGGGLVKPGGSLRLSCAASGFTFSDYYMSWIRQAPGKGLEWVSYITYSGSTIYYADSVKGRFTISRDNAKSSLYLQMNSLRAEDTAVYYCARDRGTTMVPFDYWGQGTLVTVSS
VL: B4 VL with W30T, I33L, D50A, K55E, S77G, H91Y, D93N, P96L, Q100G
[1]
  IC50 (M), neutralization: 4.28e-11 M

B6: mAb10954 (antibody, V domains shown)
VH: EVQLVESGGGLVQPGGSLRLSCAASGITVSSNYMSWVRQAPGKGLEWVSLIYSGGSTYYADSVKGRFTISRDNSKNTLYLQMNSLRVEDTAVYYCARDHGMAAAGYNYWGQGTLVTVSS
VL: B4 VL with W30N, N31K, I33L, K55E, S76N, I83F, Y87F, H91Y, D93N, T97A
[1]
  IC50 (M), neutralization: 9.22e-11 M

B7: mAb10933 (antibody, V domains shown)
VH: B5 VH
VL: B4 VL with W30T, I33L, D50A, K55E, S77G, H91Y, D93N, P96L, Q100G
[3]
  ADCP EC50 [M], Jurkat/hCD20/SARS-CoV-2 Spike cells: 5.79e-12 M
  ADCP Max (% ADCP), Jurkat/hCD20/SARS-CoV-2 Spike cells: 53.4%

B8: mAb10967 (antibody, V domains shown)
VH: EVQLVESGGGLVQPGGSLRLSCAASGFTVSSNYMSWVRQAPGKGLEWVSVIYPGGSTFYADSVKGRFTISRDNSKNTLYLQMNSLRAEDTAVYYCARDQRDFAWGQGTLVTVSS
VL: B4 VL with W30S, I33L, K55E, S77G, H91Y, D93N, K103R, V104L
[2]
  Binding signal (MFI): 21 MFI

B9: mAb10954 (antibody, V domains shown)
VH: B6 VH
VL: B4 VL with W30N, N31K, I33L, K55E, S76N, I83F, Y87F, H91Y, D93N, T97A
[2]
  Binding signal (MFI): 15 MFI

B10: mAb10934 (antibody, V domains shown)
VH: not shown
VL: B4 VL
[4]
  IC50: 0.066 nM and 0.0597 nM
[3]
  ADCP EC50 [M], Jurkat/hCD20/SARS-CoV-2 Spike cells: 2.72e-12 M
  ADCP Max (% ADCP), Jurkat/hCD20/SARS-CoV-2 Spike cells: 40.1%

B11: mAb10987 (antibody, V domains shown)
VH: QVQLVESGGGVVQPGRSLRLSCAASGFTFSNYAMYWVRQAPGKGLEWVAVISYDGSNKYYADSVKGRFTISRDNSKNTLYLQMNSLRTEDTAVYYCASGSDYGDYLLVYWGQGTLVTVSS
VL: QSALTQPASVSGSPGQSITISCTGTSSDVGGYNYVSWYQQHPGKAPKLMIYDVSKRPSGVSNRFSGSKSGNTASLTISGLQSEDEADYYCNSLTSISTWVFGGGTKLTVLG
[3]
  ADCP EC50 [M], Jurkat/hCD20/SARS-CoV-2 Spike cells: 6.33e-12 M
  ADCP Max (% ADCP), Jurkat/hCD20/SARS-CoV-2 Spike cells: 56.7%

B12: mAb10989 (antibody, V domains shown)
VH: QVQLVQSGAEVKKPGASVKVSCKASGYIFTGYYMHWVRQAPGQGLEWMGWINPNSGGANYAQKFQGRVTLTRDTSITTVYMELSRLRFDDTAVYYCARGSRYDWNQNNWFDPWGQGTLVTVSS
VL: B11 VL with G31T, Y51F, K55N, N62D, S82A, N91S, L93F, S95T, I96S, W99V
[4]
  IC50: 0.0591 nM and 0.0428 nM
[3]
  ADCP EC50 [M], Jurkat/hCD20/SARS-CoV-2 Spike cells: 4.86e-12 M
  ADCP Max (% ADCP), Jurkat/hCD20/SARS-CoV-2 Spike cells: 56%

B13: mAb11006 (antibody, V domains shown)
VH: EVQLVESGGGLVQPGGSLRLSCAASGFIVSRNYMSWVRQAPGKGLEWVSVIYSGGSTFYADSVKGRFTISRHNSKNTLYLQMNSLKAEDTAVYYCARELRGYFDYWGQGTLVTVSS
VL: DIQLTQSPSFLSASVGDRVTITCWASQGISSYLAWYQQKPGKAPKLLIYAASTLQSGVPSRFSGSGSGTEFTLTISSLQPEDFATYYCQLLNSYPYTFGQGTKLEIK
[5]
  Binding signal (MFI): 2870 MFI
[6]
  Binding signal (MFI): 3980 MFI
[7]
  Binding signal (MFI): 1400 MFI

B14: mAb10986 (antibody, V domains shown)
VH: EVQLVESGGGLVQPGGSLRLSCAASEFTVSSNYMSWVRQAPGKGLEWVSVIYSGGSTFYADSVKGRFTISRDNSKNTLYLQMNSLRAEDTAVYYCARALPYGDLHFDYWGQGTLVTVSS
VL: QSVLTQPPSVSGAPGQRVTISCTGSSSNIGTGYDVHWYQQLPGTAPKLLIYGNTNRPSGVPDRFSGSKSGTSASLAITGLQAEDEADYYCQSYDSSLSDSYVFGTGTKVTVLG
[1]
  IC50 (M), neutralization: 9.91e-11 M

B15: mAb10984 (antibody, V domains shown)
VH: EVQLVESGGGLVQPGGSLRLSCAASGLTVNRNYMSWVRQAPGKGLEWVSLIYSGGSTYYADSVKGRFTISRDNSKNTLYLQMNSLRLEDTAVYYCARGELGIPYGMDVWGQGTTVTVSS
VL: QSVLTQPPSVSAAPGQKVTISCSGSSSNIGNNYVSWYQQLPGTAPKLLIYDNNKRPSGIPDRFSGSKSGTSATLGITGLQTGDEADYYCGTWDSSLSAGVFGGGTKLTVLG
[1]
  IC50 (M), neutralization: 9.73e-11 M

B16: mAb10920 (antibody, V domains shown)
VH: QVQLVESGGGVVQPGRSLRLSCAASGFTFSYYGMHWVRQAPGKGLEWVAVIWYDGSNKFYADSVKGRFTISRDNSKNTLYLQMNSLRAEDTAVYYCAAARPGYYYGMDVWGQGTTVTVSS
VL: DIQMTQSPSSLSASVGDRVTITCRASQGISNYLAWFQQKPGKAPNSLIYAASSLQRGVPSKFSGSGSGTDFTLTISSLQPEDFATYYCQQYNSYPRTFGQGTKVEIKR
[1]
  IC50 (M), neutralization: 2.64e-10 M
